Data reported in the nanobody polyreactivity screen of Harvey et al. (2022).

assay: yeast display, Sf9 membrane polyspecificity reagent, FACS + sequencing; frameworks hold sequencing errors
Summary of the method: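 Galactose induction of a Saccharomyces cerevisiae BJ5465 synthetic nanobody display library ran 36–48 hours. The cells were then stained for 1 hour at 4 °C with 10% biotinylated, detergent-solubilized Sf9 membrane reagent, pulled down on streptavidin microbeads and FACS-sorted into low and high (top ~1%) gates on expression and reagent-binding fluorescence. Labels for polyreactivity follow the gate of origin.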

Q: With “QVQLVESGGGLLQAGGSLRLSCAASGSTIWSYAMGWYRQAPGKERELVASITWSGGSTYADSVKGRFTISRDNAKNTVYLQMNSLKPEDTAVYYCAADRGSYPDTGDYWGHGTQVTVSS” as the sequence, how does the “polyreactivity (PSR sort gate)” value read?
A: low polyreactivity

Q: Which “polyreactivity (PSR sort gate)” value does the source give for “QVQLVESGGGLLQAGGSLRLSCAASGSTVGINAMGWYRQAPGKERELVASITRRGGSTYYADSVKGRFTISRDNAKNTVYLQMNSLKPEDTAVYYCNKTYRYGTPLYDYWGQGSQVTVSS” here?
A: high polyreactivity

Q: Which “polyreactivity (PSR sort gate)” value does the source give for “QVQLVESGGGLLQAGGSLRLSCAASGYTFASNAMGWYRQAPGKERELVAAITRGGSTNYADSVKGRFTISRDNAKNTVYLQMNSLKPEDTAVYYCAAPRYRHTRKGGYWGQGTQLTVSS” here?
A: low polyreactivity

Q: For “QVQLVESGGGLLQAGGSLRVSCAASGSTLVGNTMGWYRQAPGKESELLAAITGVGSTNYADSVKGRFTISRDNAKNSVYLQMNSLKPEDTAVYSCAAEYSYTYIVSYLYDMDYWGQATQVTVSS”, which “polyreactivity (PSR sort gate)” value is on record?
A: low polyreactivity

Q: With “QVQLVESGGGLLQAGGSLSLICAASGFSIYKNAMGWYSQAPGKERELVAAITSSGGYTYYADSVKGRFTISRDNAKNTVYLQMNILKPEDTAVYYCAGSPQAYIADYDYWGQGTQVTVSS” as the sequence, how does the “polyreactivity (PSR sort gate)” value read?
A: low polyreactivity

Q: With “QVQLVESGGGLVEAGGSLRLSCAAGGRIVDRYAMGWYRQAPGKEREVVAAISDRGGSTYYADSVKGRFTISRDNAKNTVYLQMNSLKPEDTAVYYCNKVYGWYSFTWGPTASDYWGQGTQVTVSS” as the sequence, how does the “polyreactivity (PSR sort gate)” value read?
A: low polyreactivity

Q: With “QVQLVESGGGLVEAGGSLRLSCAASGIFRYYAMGWYRQAPGKERELVASITGGGSTYYADSVKGRFTISRDNAKNTVYLQMNSLKPEDTAVYYCNTAGAYYRWTPYYYWGQGTQVTVSS” as the sequence, how does the “polyreactivity (PSR sort gate)” value read?
A: high polyreactivity

Q: For “QVQLVESGGGLVEAGGSLRLSCAASGRIFLYKAMGWYRQAPVKERELVAAITASGGTTYYADSVKGRFTLSRDNAKNTVYLQMNSLKPEDTAVYYCNAYSYSGERYYWGQGTQVTVSS”, which “polyreactivity (PSR sort gate)” value is on record?
A: high polyreactivity

Q: Which “polyreactivity (PSR sort gate)” value does the source give for “QVQLVESGGGLVEAGGSLRLSCAASGSNFPWNAMGWSIQAPGKESDLVAGISSRGGSTYYADSVKGRFTISRDNAKNTVYLQMNSLKPEDTAVYYCNAAAVRRGRLVKLDYWGQGTQVTVSS” here?
A: high polyreactivity

Q: With “QVQLVESGGGLVEAGGSLRLSCAASGSTFGYNAMGWYRQAPGKERELVAAISWSGGSTYYADSVKGRFTISRDNAKNTVYLQMNSLKPEDTAVYYCATPYVKWNDYWGQGTQVTVST” as the sequence, how does the “polyreactivity (PSR sort gate)” value read?
A: low polyreactivity

Q: For “QVQLVESGGGLVEAGGSLRLSCAASGSTSRHNTMGWYRQAPGKERELVAAISGGGTTYYADSVKGRFTISRDNAKNTVYLQMNRLNPEDTAVDDCAAAFWGDYASSYRAGLDYWGQGTQETVSS”, which “polyreactivity (PSR sort gate)” value is on record?
A: low polyreactivity

Q: For “QVQLVESGGGLVEAGGSLRLTCAASGSIFTYYAMGWFRPAPGKERELVADITKSGGRTYYADSVKGRFTISRDNAKNTVYLQMYSLKPEDTAVYYCAAYRRNSRWELDYWGHGTQVTVSS”, which “polyreactivity (PSR sort gate)” value is on record?
A: high polyreactivity

Q: With “QVQLVESGGGLVHAGCSLRLSCAASGFTFKYYAMGWYRQPPGKEREIVAAISYSGGRTYYADSVKGRFTISRDNAKNTVYLQMNSLKPEDTAVYYCATDDVWKDGYWGQGTQVTVSS” as the sequence, how does the “polyreactivity (PSR sort gate)” value read?
A: low polyreactivity

Q: Which “polyreactivity (PSR sort gate)” value does the source give for “QVQLVESGGGLVHAGGRLRLSCAASGRIFWINAMGWSRQAPGKDRELVATISSGSTSYADSVKGRFTISRDNAKNTVYLQMNRLKPEATAVYYCAVTLRYTRSGAYDYWGQGTQVTVSS” here?
A: low polyreactivity

Q: With “QVQLVESGGGLVHAGGRLRLSFAASGSIFAVYAMGWYRQAPGKEREFVARIAWGGGRTYYADSVKGRFTISRDNAQNTVYLQMNSLKPEDTAVYYCNAERAGTYRYDYWGQGPQVTVSS” as the sequence, how does the “polyreactivity (PSR sort gate)” value read?
A: high polyreactivity

Q: For “QVQLVESGGGLVHAGGSIRLSCAASGRIFPAYAMGWYRQAPGKERELVASIRRGGITYADSVKGRFTISRDNAKNTVYLQMNSLKPEDTAVYYCNADYRGWVYHMDYWGQGTQVTVSS”, which “polyreactivity (PSR sort gate)” value is on record?
A: low polyreactivity

Q: With “QVQLVESGGGLVHAGGSLPLSCAASGLTFGSNPMRTYRQAPVQERELVAAISGGTSTNYADSVKGRFTISRDNAKNTVYLQMNSMTPEDTAVYYCAAAKRTADYASYWYVENDYWGQGSQVTVSS” as the sequence, how does the “polyreactivity (PSR sort gate)” value read?
A: low polyreactivity

Q: Which “polyreactivity (PSR sort gate)” value does the source give for “QVQLVESGGGLVHAGGSLRISCAASGSTFEWNAMGWYRQAPGKEREFVAAISKTGDGTYADSVKGRFTISRDNAKNSVYLQMNSLKPEDTAVYYCAAVDGFWVNYWYRIGYDYWGQGTQVTVSS” here?
A: low polyreactivity

Q: With “QVQLVESGGGLVHAGGSLRLSCAACGRIFTYYAMGWYRQAPGKERELVAAITWSGGSTYYADSVKGRFTISRDNAKNTVYLQMNSLKPEDTAVYYCNAVVLHVTTDNSTFTTDDYWGQGTQVTVSS” as the sequence, how does the “polyreactivity (PSR sort gate)” value read?
A: low polyreactivity

Q: Which “polyreactivity (PSR sort gate)” value does the source give for “QVQLVESGGGLVHAGGSLRLSCAASGFIFAANAKGWYRQAPGKERELVAAINYRGSSTYYADSVKGRFTISRDNAKNTVYLQMNSLKPYDTAVYYCAAVSSIYSGYGYWGQGTQVTVSS” here?
A: high polyreactivity

Q: With “QVQLVESGGGLVHAGGSLRLSCAASGFIFDRYVMGWYRQAPGKERDLVAAINRSGGSTYYADSVKGRFTISRDNAKNTVYLQMNSLKPEDTAVYYCAADRAGSFTTMDYWGHGTQVTVSS” as the sequence, how does the “polyreactivity (PSR sort gate)” value read?
A: high polyreactivity

Q: With “QVQLVESGGGLVHAGGSLRLSCAASGFIFDTYAMGWYRQAPGKERELVAAISRSGVRTYYADSVKGRFTISRDNAKNTVYLQMNILKPEDTAVYYCNAALNRYHFGRAFPGVYWGHGTQVTVSS” as the sequence, how does the “polyreactivity (PSR sort gate)” value read?
A: high polyreactivity

Q: For “QVQLVESGGGLVHAGGSLRLSCAASGFIFGINAMGWYRQAPGKERELVATITSGGGTNYADSVKGRFTISRDNAKNTVYLQMKSVKPEDTAVYYCADEDDYIYFYLSMDYWGQCTQVTVSS”, which “polyreactivity (PSR sort gate)” value is on record?
A: low polyreactivity

Q: Which “polyreactivity (PSR sort gate)” value does the source give for “QVQLVESGGGLVHAGGSLRLSCAASGFIYDAYANGWYRQSPGKERELVAAIDSGGSTDYADSVKGRFTISRDNAKNTVYLQMNSLKPEDTAVYYCNAERAYLWWYNFDYWGQGTQVTVSS” here?
A: low polyreactivity

Q: Which “polyreactivity (PSR sort gate)” value does the source give for “QVQLVESGGGLVHAGGSLRLSCAASGFTFGSNAMGWYRQAPGKERELVAAISSRGGRTYYADSVKGRFTISRDNAKNTVYLQMNRLKPDDTAVYYCNADATVAWREQEYEYWGQGTQVSVSS” here?
A: high polyreactivity

Q: Which “polyreactivity (PSR sort gate)” value does the source give for “QVQLVESGGGLVHAGGSLRLSCAASGITFEVYGMGWYRQSPGKERELVAAINSDGNTNYADSVKGRFTISRDNAKNTVYLEMNSVKPEDTAVYYCATVVNAQISRGESAVTGYYYWGQGTQVTVSS” here?
A: high polyreactivity

Q: For “QVQLVESGGGLVHAGGSLRLSCAASGITSPYSMGWYRQSPGKERELVAAISSGASTYYADTVKGRFTISRDNAKNTVYLQMNSLKPEVTAVYYCNRVTKRYPNIGNYWGQGTQVTLSS”, which “polyreactivity (PSR sort gate)” value is on record?
A: high polyreactivity

Q: With “QVQLVESGGGLVHAGGSLRLSCAASGLIFPRYDMGWYRQAPGKELELVAAITSGGGTYYADSVKGRITISRDNAKNTVYLQMNSLIPEDTAVYYCARDHYRHSRFFYRYVYWGQGTQVSVSS” as the sequence, how does the “polyreactivity (PSR sort gate)” value read?
A: low polyreactivity

Q: With “QVQLVESGGGLVHAGGSLRLSCAASGLTFYGYTMGCYRQAPGKERQLVADISISGGSTRYADSVKGRFTISRDNAKNTVYLQMISLKPEDTAVYYCARDDIYYSNIYDYWGQGTQVTVSS” as the sequence, how does the “polyreactivity (PSR sort gate)” value read?
A: low polyreactivity

Q: Which “polyreactivity (PSR sort gate)” value does the source give for “QVQLVESGGGLVHAGGSLRLSCAASGMTFTKNVMGWYRQSPGKERELVAVISRSGGSTYYADSVKGRFTISRDNAKNTVYLQMNSLKPEDTAVYYCNVKGPGPSRGNYWGQGTQVTVSS” here?
A: low polyreactivity

Q: Which “polyreactivity (PSR sort gate)” value does the source give for “QVQLVESGGGLVHAGGSLRLSCAASGRIFGVYAMGWYRQAPGKERELVAAISEGGGSTNYADSVKGRFTISRDNAKNTVYLQMNSLKPEDTAVYYCAATYRTGVRRYYSWGQGTQVTVSS” here?
A: low polyreactivity

Q: With “QVQLVESGGGLVHAGGSLRLSCAASGRTFGTYAKGWYRQAPGKERELVAAISSRGGSTYYADSVKGRFTISRDNAKNTVYLQMNSLKPEDTAVYYCAQRVKDGSGYWGQGTQVTVSS” as the sequence, how does the “polyreactivity (PSR sort gate)” value read?
A: high polyreactivity
